Experimental data taken from paper PMC4402518.

Target: Hop2;Mnd1 (Giardia lamblia ATCC 50803;Giardia lamblia ATCC 50803) (UniProt E2RTU1)
Assay: fluorescence anisotropy
Conditions: Fluorescence anisotropy: 20 mM Tris-HCl pH 7.5, 100 mM NaCl, 5 mM MgCl2, 25 C, 50 nM DNA, triplicate, Exo I assay conditions not in material

Sequence: GCGGGTAATCCAGATGTTCCACGTGAAACAGAACAACTAA (double strand) [40 bp dsDNA]
- Kd (5 mM Mg2+): 100 nM
- binding signal (fold weaker than with 5 mM Mg2+) (no Mg2+): 10
